Test results published in article doi:10.1101/2020.01.13.904318 (bioRxiv, 2020).

Molecular target: the molecule itself
Experiment: SEC

B1: purified FrlR UTRA-domain (domain or fragment)
chain: QKVENALLTVSGFTDFGVSQGKATKEKVIEQERVSAAPFCEKLNIPGNSEVFHLCRVMYLDKEPLFIDSSWIPLSRYPDFDEIYVEGSSTYQLFQERFDTRVVSDKKTIDIFAATRPQAKWLKCELGEPLFRISKIAFDQNDKPVHVSELFCRANRITLTIDNKRH
stoichiometry N: 2
